In patent US10077295B2, “Glycoproteins having lipid mobilizing properties and therapeutic uses thereof” (Aston University, priority 2010, dated 2018):

Experiments:
[1] = target: T1, human β2-AR (Homo sapiens, UniProt P07550); assay: [125I] ZAG binding to crude membranes of CHO-K1 β2 cells; conditions: single freeze/thaw cycle
T1 construct: host or cells: CHO-K1
Method: [^125I] labelling of ZAG. One iodo bead that had been washed and dried was incubated with Na [^125I] (1 mCi per 100 μg protein) for 5 min in PBS, then ZAG (100 μg protein) was added and left for a further 15 min. The reaction was terminated by removal of the iodo bead, while free Na [^125I] was removed using a Sephadex G25 column eluted with 0.1MNaI. The [^125I] ZAG was concentrated against PBS using a Microcon microconcentrator with a filter cut-off of Mr 10,000. The specific activity of the [^125I] ZAG was 8 Cimg protein^1.
For binding studies cells were sonicated in 2 mM Tris HCl, pH7.5, containing […] and crude total membranes were pelleted by centrifugation (13,000 g; 15 min) at 4° C. Binding studies were carried out at 37° C. by incubating membranes (500 μg protein) in 0.4 ml 50 mM Tris HCl, pH 7.5, containing 0.5 mM MgCl2 for 60 min with various concentrations of [^125I] ZAG (3,000 to 15,000 cpm) in the absence or presence of 100 μM non-labelled ZAG. The membranes were then precipitated by centrifugation at 13000 g for 20 min, the supernatant was removed and the [^125I] bound to the pellet was quantitated using a Packard Corbra Model 5005 Auto-gamma counter. Binding was analysed using non-linear regression analysis (GraphPad Prism, Version 5.04). Specific binding was regarded as the amount of labelled ZAG displaced by non-radioactive ZAG.

[2] = test system: ob/ob mice; assay: ob/ob mice administered ZAG i.v. for 5 days (120 h): body weight, temperature, plasma metabolites, tissue weights; type: in vivo, mouse
Method: (§1) Animals—Mice. Homozygous obese (ob/ob) mice from the colony maintained at Aston University were used in the present study. The origin and characteristics of Aston ob/ob mice have been previously described. Male mice (20-21 weeks old, weight 90-100 g) were grouped into three per cage in an air conditioned room at 22±2° C. with a 12 h-light:12 h-dark cycle and fed a rat and mouse breeding diet (Special Diet Services, Witham, UK) and tap water ad libitum. They were administered ZAG (35 μg) in PBS (100 μl) b.d. by i.v. administration and body weight and food and water intake were monitored daily. Control mice received PBS alone. Body temperature was measured daily by the use of a rectal thermometer (RS Components, Northants, UK). All animal experiments were carried out in accordance with the U.K. Animals (Scientific Procedures) Act 1986.
Serum Metabolite Determinations. Non-esterified fatty acids (NEFA) were determined using a Wako-ASC-ACOD kit (Wako Chemical GmbH, Neuss, Germany). Triglycerides were determined using a Triglyceride kit (Sigma Chemical Co., Poole, United Kingdom) and 3-hydroxybutyrate by a quantitative enzymatic determination kit (Sigma). Glucose was measured using a glucose analyser (Beckman, Irvine, Calif.) and glycerol was determined enzymatically using the method of Wieland as described in “Methods of Enzymatic Analysis” (Ed. Bergmeyer, H. U.) Vol. 3, pp1404-1409, published by Academic Press, London (1974).

[3] = test system: ob/ob mice; assay: ob/ob mice treated with ZAG, 21 day study; type: in vivo, mouse
Method: FIG. 7A is a graphical diagram showing weight loss of the ob/ob mice during the 21 day study. ZAG was injected at days 1, 4, 5, 8, 13, 16, 18, and 19; PBS was injected at the same time points.
as §1
After 21 days, the plasma metabolite levels in the ob/ob mice were observed (Table 2), with monitored parameters shown in Table 3. […] It was noted that there is much more insulin in the pancreas in ZAG treated animals showing the drop in plasma insulin, which is not due to lower insulin production (e.g., as would happen with a toxin to pancreatic beta cells), but rather due to the fact that less insulin is needed to control blood glucose in the ZAG treated animals.

[4] = test system: β3-AR, β1-AR and β2-AR expression; assay: Western blot of β-AR expression in tissues of ob/ob mice after 5 days ZAG; type: in vivo, mouse
Method: Western Blot Analysis. WAT, BAT, heart and gastrocnemius muscle were thawed, washed in PBS, and lysed in Phosphsafe™ Extraction reagent for 5 min at room temperature, followed by sonication at 4° C. The supernatant formed by centrifugation at 18,000 g for 5 min at 4° C. was used for Western blotting. Cytosolic protein (5 μg for UCP's and 20 μg for β-AR) was resolved on 12% sodium dodecylsulphate polyacrylamide gels by electrophoresis at 180V for about 1 h and transferred on to 0.45 μm nitrocellulose membranes, which had been blocked with 5% (w/v) non-fat dried milk (Marvel) in Tris-buffered saline, pH 7.5, at 4° C. overnight. Prior to adding the primary antibodies membranes were washed for 15 min in 0.1% Tween 20-buffered saline. Both primary and secondary antibodies were used at a dilution of 1:1000. Incubation was for 1 h at room temperature and development was by ECL. Blots were scanned by a densitometer to quantify differences.

B1: ZAG: recombinant full length human zinc-α2-glycoprotein (SEQ ID NO: 1) secreted by transfected HEK293F cells; lipid mobilizing factor (protein, listed as Homo sapiens)
chain: QENQDGRYSLTYIYTGLSKHVEDVPAFQALGSLNDLQFFRYNSKDRKSQPMGLWRQVEGMEDWKEDSQLQKAREDMETLKDIVEYYNDSNGSHVLQGRFGCEIENNRSSGAFWKYYYDGKDYIEFNKEIPAWVPFDPAAQITKQKWEAEPVYVQRAKAYLEEECPATLRKYLKYSKNILDRQDPPSVVVTSHQAPGEKKKLKCLAYDFYPGKIDVHWTRAGQVQEPELRGDVLHNGNGTYQSWVVVAVPPQDTAPYSCHVQHSSLAQPLVVPWEAS
effect of freeze-thawing on binding to β2-AR [1]: eliminated binding | oxygen uptake by BAT ([2]; ob/ob mice after ZAG administration): three-fold increase | BAT weight ([2]; ob/ob mice treated for 120 h): 0.73 ± 0.12 p < 0.01 g | Gastrocnemius weight ([2]; ob/ob mice treated for 120 h): 1.12 ± 0.14 p < 0.01 g | Glucose (plasma) ([2]; ob/ob mice treated for 120 h): 20.3 ± 0.8 p < 0.01 mmol/L | Glycerol (plasma) ([2]; ob/ob mice treated for 120 h): 429 + 36 p < 0.001 μmol/L | Insulin (plasma) ([2]; ob/ob mice treated for 120 h): 26.3 ± 0.52 p < 0.001 ng/mL | Insulin Pancreas ([2]; ob/ob mice treated for 120 h): 16.3 ± 3.1 p = 0.0042 pg/g pancerase | NEFA (plasma) ([2]; ob/ob mice treated for 120 h): 0.23 ± 0.05 p < 0.001 mEq/L | Soleus weight ([2]; ob/ob mice treated for 120 h): 0.80 ± 0.09 p < 0.01 g | TG (plasma) ([2]; ob/ob mice treated for 120 h): 0.9 ± 0.1 p < 0.05 mmol/L | adverse effects after administration ([2]; ob/ob mice, 35 μg i.v.): No adverse effects were observed | decrease in plasma insulin levels ([2]; ob/ob mice, 5 days): 36% | blood glucose ([2]; ob/ob mice, Day 5 (value before the further drop)): 2.03 mM | rise of body temperature ([2]; ob/ob mice, after 4 days of ZAG): 0.4 °C | weight difference between ZAG and PBS groups ([2]; ob/ob mice, after 5 days): 3.5 g | weight of the gastrocnemius muscles ([3]; ob/ob mice): 0.7 ± 0.1 g | weight of brown adipose tissue ([3]; ob/ob mice (FIG. 7)): 0.52 ± 0.08 g | BAT weight ([3]; ob/ob mice, Day 21): 0.41 ± 0.35 g | Gastrocnemius weight ([3]; ob/ob mice, Day 21): 0.39 ± 0.12 g | Glucose (plasma) ([3]; ob/ob mice, Day 21): 15.2 ± 2.1 mmol/L | Glycerol (plasma) ([3]; ob/ob mice, Day 21): 450 ± 36.2 | Insulin (plasma) ([3]; ob/ob mice, Day 21): 28.5 ± 0.34 ng/mL | Insulin Pancreas ([3]; ob/ob mice, Day 21): 14.5 ± 2.5 pg/g pancerase | NEFA (plasma) ([3]; ob/ob mice, Day 21): 0.22 ± 0.06 mEq/l | Soleus weight ([3]; ob/ob mice, Day 21): 0.18 ± 0.07 g | Triglycerides (plasma) ([3]; ob/ob mice, Day 21): 0.89 ± 0.08 mmol/L | blood glucose ([3]; ob/ob mice, Day 21): 15.2 mM | Finish weight ([3]; ob/ob mice, Day 21, in g): 83.95 ± 2.2 | peak body temperature ([3]; ob/ob mice, just before maximum weight loss): 38.1 °C | expression of β1-AR or β2-AR in gastrocnemius muscle or WAT [4]: no change in expression | increase in β3-AR expression in BAT [4]: 89% | increase in β3-AR expression in WAT [4]: 85% | β3-AR expression in gastrocnemius muscle [4]: two-fold increase
